Six molecules from patent US20090068103, “APTAMERS LABELED WITH 68GA” (published 2009) can be followed below.

Sequences and labels used below:
B1: TTA5 (ssRNA)
RNA: TAGGGAGGACGCGUCGCCGUAAUGGAUGUUUUGCUCCCUG
modifications: 5'-(aminomodifier C2 dT)-mA mGmGmG mAmGG mAfCmG-(CH2CH2O)6-fCGfU fCGfC fCGfU mAmAfU mGmGmA fUmGfU fUfUfU mGfCfU fCfCfC fUmG (m=2'-OMe, f=2'-F); 3'-3'-T cap
B2: TTA3 (ssRNA)
RNA: GGGAGGACGCGUCGCCGUAAUGGAUGUUUUGCUCCCUG
modifications: 5'-NH2-C6; mGmGmG mAmGG mAfCmG-(CH2CH2O)6-fCGfU fCGfC fCGfU mAmAfU mGmGmA fUmGfU fUfUfU mGfCfU fCfCfC UG (m=2'-OMe, f=2'-F); 3'-3'-T cap
B3: TTA6 (ssRNA)
RNA: GGGAGGACGCGUCGCCGUAAUGGAUGUUUUGCUCCCUG
modifications: 5'-NH2-C6-O-SPO-O (PS linkage); mGmGmG mAmGG mAfCmG-(CH2CH2O)6-fCGfU fCGfC fCGfU mAmAfU mGmGmA fUmGfU fUfUfU mGfCfU fCfCfC fUmG (m=2'-OMe, f=2'-F); 3'-3'-T cap
B4: TTA4 (ssRNA)
RNA: GGGAGGACGCGUCGCCGUAAUGGAUGUUUUGCUCCC
modifications: mGmGmG mAmGG mAfCmG-(CH2CH2O)6-fCGfU fCGfC fCGfU mAmAfU mGmGmA fUmGfU fUfUfU mGfCfU fC(C6-NH2)CfC (m=2'-OMe, f=2'-F); 3'-3'-T cap
B5: TTA7 (ssRNA)
RNA: GGGAGGACGCGUCGCCGUAAUGGAUGUUUUGCUCCC
modifications: LGLGLG LALGmG mAfCrG-(CH2OCH2)6-fCGfU fCGfC fCGfU mAmAfU mGmGmA fUmGfU fUfUfU mGLCLU LCLCLC-(CH2)6NH2-3' (m=2'-OMe, f=2'-F, L prefix as printed, LNA inferred, r=ribo)
B6: TTA8 (ssRNA)
RNA: GGGAGGACGCGUCGCCGUAAUGGAUGUUUUGCUCCC
modifications: mGmGmG mAmGmG mAfCrG-(CH2OCH2)6-fCGfU fCGfC fCGfU mAmAfU mGmGmA fUmGfU fUfUfU mGmCmU mCmCmC-(CH2)6NH2-3' (m=2'-OMe, f=2'-F, r=ribo)

The target in this data set is Tenascin-C (TN-C) (Homo sapiens, UniProt P24821 P24821:23-2201). As to the kind of experiment: competition; filter competition vs 1 nM 99mTc-TTA1-MAG2, 2 nM TN-C; TBSMC pH 7.4, 1 mM CaCl2, 1 mM MgCl2, 37 C. The following applies: tags: none stated; chain copies: 6. The method, then: A competition filter binding assay was carried out in order to determine binding constants (EC₅₀). Samples of 2 nM human TN-C were incubated with 1 nM ^99mTc-TTA1-MAG₂ in TBSMC buffer (20 mM Tris, pH 7.4; 137 mM NaCl; 1 mM CaCl₂; 1 mM MgCl₂) and the binding competed with varying concentrations of unlabeled aptamer (see pipetting scheme in FIG. 9.1). Incubation was carried out at 37° C. for 15 min. Subsequently, the solutions were pipetted on a Minifold Device equipped with a supported nitrocellulose membrane and Whatman filter paper and were washed with buffer using vacuum. Residual radioactivity on the filter due to tenascin-C bound labeled aptamer was quantified using a Phosphorimager. EC₅₀ values were calculated using GraphPadPrism 3.02 (San Diego, Calif., USA) plotting one-side competition non-linear regression curves.
Tenascin-C (TN-C), sequence (P24821 23-2201, one chain of several): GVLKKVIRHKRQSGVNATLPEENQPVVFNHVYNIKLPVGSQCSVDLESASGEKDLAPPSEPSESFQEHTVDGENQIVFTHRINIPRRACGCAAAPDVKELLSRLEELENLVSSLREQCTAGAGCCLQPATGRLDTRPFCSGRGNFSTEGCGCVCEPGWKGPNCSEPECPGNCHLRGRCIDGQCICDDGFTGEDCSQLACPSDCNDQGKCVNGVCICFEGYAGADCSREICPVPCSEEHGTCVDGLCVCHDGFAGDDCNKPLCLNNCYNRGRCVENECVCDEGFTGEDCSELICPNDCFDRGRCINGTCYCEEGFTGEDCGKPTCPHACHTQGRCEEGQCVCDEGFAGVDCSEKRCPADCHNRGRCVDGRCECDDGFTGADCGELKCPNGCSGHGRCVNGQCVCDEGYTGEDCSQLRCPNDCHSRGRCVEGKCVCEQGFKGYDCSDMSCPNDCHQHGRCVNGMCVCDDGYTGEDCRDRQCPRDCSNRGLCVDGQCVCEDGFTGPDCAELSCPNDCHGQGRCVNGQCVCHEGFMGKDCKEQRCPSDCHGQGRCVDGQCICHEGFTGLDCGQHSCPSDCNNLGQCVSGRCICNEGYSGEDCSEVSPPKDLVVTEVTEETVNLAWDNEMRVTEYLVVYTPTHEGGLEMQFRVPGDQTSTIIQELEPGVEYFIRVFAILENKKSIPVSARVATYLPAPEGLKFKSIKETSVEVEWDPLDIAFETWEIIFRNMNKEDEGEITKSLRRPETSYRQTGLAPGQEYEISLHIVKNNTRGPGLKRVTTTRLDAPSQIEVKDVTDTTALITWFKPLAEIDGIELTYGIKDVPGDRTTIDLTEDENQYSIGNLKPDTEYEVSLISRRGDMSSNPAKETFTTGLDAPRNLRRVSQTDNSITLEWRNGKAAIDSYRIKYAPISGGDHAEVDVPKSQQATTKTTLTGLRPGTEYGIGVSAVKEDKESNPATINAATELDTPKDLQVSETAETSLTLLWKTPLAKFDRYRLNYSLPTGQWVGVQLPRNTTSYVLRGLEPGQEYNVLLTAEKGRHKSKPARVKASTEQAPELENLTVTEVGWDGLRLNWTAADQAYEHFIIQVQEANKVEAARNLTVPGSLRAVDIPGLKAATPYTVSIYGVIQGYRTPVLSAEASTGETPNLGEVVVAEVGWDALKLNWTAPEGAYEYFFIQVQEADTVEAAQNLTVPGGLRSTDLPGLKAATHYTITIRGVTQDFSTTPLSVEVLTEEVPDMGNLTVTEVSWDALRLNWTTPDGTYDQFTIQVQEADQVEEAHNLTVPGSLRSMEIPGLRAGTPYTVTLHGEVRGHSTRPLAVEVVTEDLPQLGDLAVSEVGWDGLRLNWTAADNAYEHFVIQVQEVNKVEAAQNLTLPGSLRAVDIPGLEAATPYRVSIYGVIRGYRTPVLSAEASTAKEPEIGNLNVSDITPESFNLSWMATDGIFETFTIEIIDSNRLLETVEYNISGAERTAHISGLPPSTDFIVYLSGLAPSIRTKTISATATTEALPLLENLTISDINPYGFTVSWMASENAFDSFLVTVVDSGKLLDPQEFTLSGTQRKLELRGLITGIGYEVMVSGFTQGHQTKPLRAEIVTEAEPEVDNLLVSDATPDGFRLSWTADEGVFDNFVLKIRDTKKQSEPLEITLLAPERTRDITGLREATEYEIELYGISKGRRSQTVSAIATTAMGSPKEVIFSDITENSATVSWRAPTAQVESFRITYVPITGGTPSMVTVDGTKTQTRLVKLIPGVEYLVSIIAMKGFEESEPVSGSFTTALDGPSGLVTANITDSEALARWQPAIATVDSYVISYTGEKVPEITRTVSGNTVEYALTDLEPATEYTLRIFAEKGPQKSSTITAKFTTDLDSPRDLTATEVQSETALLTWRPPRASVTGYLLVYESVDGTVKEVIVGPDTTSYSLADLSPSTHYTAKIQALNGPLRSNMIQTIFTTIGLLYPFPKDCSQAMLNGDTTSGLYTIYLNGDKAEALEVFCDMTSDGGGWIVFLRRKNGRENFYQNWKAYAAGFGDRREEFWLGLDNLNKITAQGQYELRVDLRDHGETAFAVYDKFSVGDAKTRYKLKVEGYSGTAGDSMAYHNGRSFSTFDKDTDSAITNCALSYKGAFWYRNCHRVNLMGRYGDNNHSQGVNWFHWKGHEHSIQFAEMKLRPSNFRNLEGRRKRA
In turn, B1 gave an EC50 of 39 nM. That is a double-digit nanomolar value. For B2, the response was half-maximal at 19 nM (EC50).

B3 registered an EC50 of 14 nM. To B4 belongs 20 nM. Molecule B5 displayed an EC50 of 2 nM. To B6 belongs 14 nM.

A word on the EC50: it is the concentration giving half of the maximal effect. Read a low EC50 as higher potency in that assay.
